How the values were obtained:
[1] = tested on: E. coli MG1655; assay: Coexpression of putative decarbonylase with S. elongatus PCC7942 orf1594 in E. coli, GC-MS of extracts; assay type: cell-based; conditions: coexpressed with S. elongatus PCC7942 orf1594 in E. coli MG1655, M9 minimal media
Protocol: After a 1 μl splitless injection (inlet temperature held at 300° C.) onto the GC/MS column, the oven was held at 100° C. for 3 mins. The temperature was ramped up to 320° C. at a rate of 20° C./min. The oven was held at 320° C. for an additional 5 min. The flow rate of the carrier gas helium was 1.3 ml/min. The MS quadrapole scanned from 50 to 550 m/z. Retention times and fragmentation patterns of product peaks were compared with authentic references to confirm peak identity.
The genomic DNA encoding Synechococcus elongatus PCC7942 orf1594 (YP—400611; putative aldehyde-generating enzyme) (SEQ ID NO: 65) was amplified and cloned into the NcoI and EcoRI sites of vector OP-80 (pCL1920 derivative) under the control of the Ptrc promoter. The resulting construct (“OP80-PCC7942—1594”) was transformed into E. coli MG1655 and the cells were grown at 37° C. in M9 minimal media with 1% (w/v) glucose as carbon source and supplemented with 100 μg/ml spectinomycin. When the culture reached OD600 of 0.8-1.0, it was induced with 1 mM IPTG and cells were grown for an additional 18-20 h at 37° C. Cells from 0.5 ml of culture were extracted with 0.5 ml of ethyl acetate. After sonication for 60 min, the sample was centrifuged at 15,000 rpm for 5 min. The solvent layer was analyzed by GC-MS as described in Example 1.
The genomic DNA encoding Synechococcus elongatus PCC7942 orf1593 (YP—400610; putative decarbonylase) (SEQ ID NO: 1) was amplified and cloned into the NdeI and XhoI sites of vector OP-183 (pACYC derivative) under the control of the Ptrc promoter. The resulting construct was cotransformed with OP80-PCC7942—1594 into E. coli MG1655 and the cells were grown at 37° C. in M9 minimal media supplemented with 100 μg/ml spectinomycin and 100 μg/ml carbenicillin. The cells were cultured and extracted as in Example 3 and analyzed by GC-MS as described in Example 1. […]

[2] = tested on: E. coli MG1655 ΔfadD lacZ::Ptrc-′tesA; assay: Heterologous expression in a fatty aldehyde-producing E. coli strain with MSMEG—5739, GC-MS; assay type: cell-based; conditions: decarbonylase coexpressed with carboxylic acid reductase MSMEG—5739

Row | Molecule | fatty aldehyde decarbonylase activity (alkane/alkene production) [1] | conversion of fatty aldehydes provided by MSMEG—5739 to alkanes [2]
1 | PCC7942—1593: Synechococcus elongatus PCC7942 orf1593 putative decarbonylase (SEQ ID NO: 1) | active fatty aldehyde decarbonylase | 
2 | alr5283: Nostoc sp. PCC7210 putative decarbonylase (SEQ ID NO: 7) (protein, listed as Nostoc sp.) MQQVAADLEIDFKSEKYKDAYSRINAIVIEGEQEAYENYIQLSQLLPDDKEDLIRLSKMESRHKKGFEACGRNLQVSPDMEFAKEFFAGLHGNFQKAAAEGKIVTCLLIQSLIIECFAIAAYNIYIPVADDFARKITEGVVKDEYSHLNFGEVWLQKNFAQSKAELEEANRHNLPIVWKMLNQVADDAAVLAMEKEALVEDFMIQYGEALSNIGFTTRDIMRMSAYGLTAA | active fatty aldehyde decarbonylase | converted fatty aldehydes provided by MSMEG—5739 to the corresponding alkanes
3 | tll1313: Thermosynechococcus elongatus BP-1 putative decarbonylase (SEQ ID NO: 11) (protein, listed as Thermosynechococcus elongatus) MTTATATPVLDYHSDRYKDAYSRINAIVIEGEQEAHDNYIDLAKLLPQHQEELTRLAKMEARHKKGFEACGRNLSVTPDMEFAKAFFEKLRANFQRALAEGKTATCLLIQALIIESFAIAAYNIYIPMADPFARKITESVVKDEYSHLNFGEIWLKEHFESVKGELEEANRANLPLVWKMLNQVEADAKVLGMEKDALVEDFMIQYSGALENIGFTTREIMKMSVYGLTGA | active fatty aldehyde decarbonylase | 
4 | gll3146: Gloeobacter violaceus PCC7421 putative decarbonylase (SEQ ID NO: 15) (protein, listed as Gloeobacter violaceus) VNRTAPSSAALDYRSDTYRDAYSRINAIVLEGEREAHANYLTLAEMLPDHAEALKKLAAMENRHFKGFQSCARNLEVTPDDPFARAYFEQLDGNFQQAAAEGDLTTCMVIQALIIECFAIAAYNVYIPVADAFARKVTEGVVKDEYTHLNFGQQWLKERFVTVREGIERANAQNLPIVWRMLNAVEADTEVLQMDKEAIVEDFMIAYGEALGDIGFSMRDVMKMSARGLASAPRQ | active fatty aldehyde decarbonylase | converted fatty aldehydes provided by MSMEG—5739 to the corresponding alkanes
5 | PM1231: Prochlorococcus marinus MIT9313 putative decarbonylase (SEQ ID NO: 17) (protein, listed as Prochlorococcus marinus) MPTLEMPVAAVLDSTVGSSEALPDFTSDRYKDAYSRINAIVIEGEQEAHDNYIAIGTLLPDHVEELKRLAKMEMRHKKGFTACGKNLGVEADMDFAREFFAPLRDNFQTALGQGKTPTCLLIQALLIEAFAISAYHTYIPVSDPFARKITEGVVKDEYTHLNYGEAWLKANLESCREELLEANRENLPLIRRMLDQVAGDAAVLQMDKEDLIEDFLIAYQESLTEIGFNTREITRMAAAALVS | active fatty aldehyde decarbonylase | 
6 | PMM0532: Prochlorococcus marinus CCMP1986 putative decarbonylase (SEQ ID NO: 19) (protein, listed as Prochlorococcus marinus) MQTLESNKKTNLENSIDLPDFTTDSYKDAYSRINAIVIEGEQEAHDNYISLATLIPNELEELTKLAKMELKHKRGFTACGRNLGVQADMIFAKEFFSKLHGNFQVALSNGKTTTCLLIQAILIEAFAISAYHVYIRVADPFAKKITQGVVKDEYLHLNYGQEWLKENLATCKDELMEANKVNLPLIKKMLDQVSEDASVLAMDREELMEEFMIAYQDTLLEIGLDNREIARMAMAAIV | active fatty aldehyde decarbonylase | converted fatty aldehydes provided by MSMEG—5739 to the corresponding alkanes
7 | PMN2A—1863: Prochlorococcus mariunus NATL2A putative decarbonylase (SEQ ID NO: 21) (protein, listed as Prochlorococcus marinus) MQAFASNNLTVEKEELSSNSLPDFTSESYKDAYSRINAVVIEGEQEAYSNFLDLAKLIPEHADELVRLGKMEKKHMNGFCACGRNLAVKPDMPFAKTFFSKLHNNFLEAFKVGDTTTCLLIQCILIESFAISAYHVYIRVADPFAKRITEGVVQDEYLHLNYGQEWLKANLETVKKDLMRANKENLPLIKSMLDEVSNDAEVLHMDKEELMEEFMIAYQDSLLEIGLDNREIARMALAAVI | active fatty aldehyde decarbonylase | 
8 | RS991709941: Synechococcus sp. RS9917 putative decarbonylase (SEQ ID NO: 23) (protein, listed as Synechococcus sp.) MPTLETSEVAVLEDSMASGSRLPDFTSEAYKDAYSRINAIVIEGEQEAHDNYIALGTLIPEQKDELARLARMEMKHMKGFTSCGRNLGVEADLPFAKEFFAPLHGNFQAALQEGKVVTCLLIQALLIEAFAISAYHIYIPVADPFARKITEGVVKDEYTHLNYGQEWLKANFEASKDELMEANKANLPLIRSMLEQVAADAAVLQMEKEDLIEDFLIAYQEALCEIGFSSRDIARMAAAALAV | active fatty aldehyde decarbonylase | converted fatty aldehydes provided by MSMEG—5739 to the corresponding alkanes
9 | RS9917—12945: Synechococcus sp. RS9917 putative decarbonylase (SEQ ID NO: 25) (protein, listed as Synechococcus sp.) MTQLDFASAAYREAYSRINGVVIVGEGLANRHFQMLARRIPADRDELQRLGRMEGDHASAFVGCGRNLGVVADLPLARRLFQPLHDLFKRHDHDGNRAECLVIQGLIVECFAVAAYRHYLPVADAYARPITAAVMNDESEHLDYAETWLQRHFDQVKARVSAVVVEALPLTLAMLQSLAADMRQIGMDPVETLASFSELFREALESVGFEAVEARRLLMRAAARMV | active fatty aldehyde decarbonylase | converted fatty aldehydes provided by MSMEG—5739 to the corresponding alkanes
10 | ATCC51142 cce—0778: Cyanothece sp. ATCC51142 putative decarbonylase (SEQ ID NO: 27) (protein, listed as Cyanothece sp.) MQELALRSELDFNSETYKDAYSRINAIVIEGEQEAYQNYLDMAQLLPEDEAELIRLSKMENRHKKGFQACGKNLNVTPDMDYAQQFFAELHGNFQKAKAEGKIVTCLLIQSLIIEAFAIAAYNIYIPVADPFARKITEGVVKDEYTHLNFGEVWLKEHFEASKAELEDANKENLPLVWQMLNQVEKDAEVLGMEKEALVEDFMISYGEALSNIGFSTREIMKMSAYGLRAA | active fatty aldehyde decarbonylase | 
11 | Cyan7425—0398: Cyanothece sp. PCC7425 putative decarbonylase (SEQ ID NO: 29) (protein, listed as Cyanothece sp.) MPQVQSPSAIDFYSETYQDAYSRIDAIVIEGEQEAHDNYLKLTELLPDCQEDLVRLAKMEARHKKGFEACGRNLKVTPDMEFAQQFFADLHNNFQKAAAANKIATCLVIQALIIECFAIAAYNIYIPVADDFARKITENVVKDEYTHLNFGEEWLKANFDSQREEVEAANRENLPIVWRMLNQVETDAHVLGMEKEALVESFMIQYGEALENIGFSTREIMRMSVYGLSAA | active fatty aldehyde decarbonylase | 
12 | Cyan7425—2986: Cyanothece sp. PCC7425 putative decarbonylase (SEQ ID NO: 31) (protein, listed as Cyanothece sp.) MSDCATNPALDYYSETYRNAYRRVNGIVIEGEKQAYDNFIRLAELLPEYQAELTRLAKMEARHQKSFVACGQNLKVSPDLDFAAQFFAELHQIFASAANAGQVATCLVVQALIIECFAIAAYNTYLPVADEFARKVTASVVQDEYSHLNFGEVWLQNAFEQCKDEIITANRLALPLIWKMLNQVTGELRILGMDKASLVEDFSTRYGEALGQIGFKLSEILSLSVQGLQAVTP | active fatty aldehyde decarbonylase | 
